Results on 1 protein are retold here after publication PMC2115704 (The Journal of Cell Biology, 1989).

The data set concerns the molecule itself. Put plainly: SDS-PAGE in the absence of reductant.

B1: platelet thrombospondin (natural protein)
chain: not shown
modifications: iodinated (residues not stated)
One may read the stoichiometry N as a count of units in the complex or per binding partner. For the protein B1, the “stoichiometry N” value stood at 3.
